Several values for one entry are separate records, joined by “and”; a condition that tells them apart may be missing. Identical values can stand only once. Like-named read-outs stand apart in the source and are kept apart here.
Assays:
[1] = biological target: human UDP-glucose dehydrogenase Q458Bpa (human) (UniProt O60701); assay: SEC
[2] = biological target: human UDP-glucose dehydrogenase Q458Bpa (human) (UniProt O60701); assay: SEC; remark: listed apart in the source
[3] = biological target: human UDP-glucose dehydrogenase Q458Bpa (human) (UniProt O60701); assay: cross-linking
[4] = biological target: human UDP-glucose dehydrogenase T325D obligate dimeric mutant (human) (UniProt O60701); assay: SEC
[5] = biological target: human UDP-glucose dehydrogenase Y96Bpa (human) (UniProt O60701); assay: SEC
[6] = biological target: the molecule itself; assay: SEC

Molecule: human UDP-glucose dehydrogenase Q458Bpa (from UniProt O60701 1-494) (enzyme)
- stoichiometry N [1]: 6
- stoichiometry N [2]: 6
- cross-linking efficiency (holoenzyme) [3]: > 60%
- cross-linking efficiency (with UDP-xylose alone) [3]: 40%
- total crosslinking efficiency (with NAD+ and UDP-glucose) [3]: 63%

Molecule: human UDP-glucose dehydrogenase T325D obligate dimeric mutant (from UniProt O60701 1-494) (enzyme)
- stoichiometry N [4]: 2

Molecule: human UDP-glucose dehydrogenase Y96Bpa (from UniProt O60701 1-494) (enzyme)
- stoichiometry N [5]: 2

B1: human UDP-glucose dehydrogenase, wild type (enzyme, UniProt O60701 1-494, looked up)
chain: MFEIKKICCIGAGYVGGPTCSVIAHMCPEIRVTVVDVNESRINAWNSPTLPIYEPGLKEVVESCRGKNLFFSTNIDDAIKEADLVFISVNTPTKTYGMGKGRAADLKYIEACARRIVQNSNGYKIVTEKSTVPVRAAESIRRIFDANTKPNLNLQVLSNPEFLAEGTAIKDLKNPDRVLIGGDETPEGQRAVQALCAVYEHWVPREKILTTNTWSSELSKLAANAFLAQRISSINSISALCEATGADVEEVATAIGMDQRIGNKFLKASVGFGGSCFQKDVLNLVYLCEALNLPEVARYWQQVIDMNDYQRRRFASRIIDSLFNTVTDKKIAILGFAFKKDTGDTRESSSIYISKYLMDEGAHLHIYDPKVPREQIVVDLSHPGVSEDDQVSRLVTISKDPYEACDGAHAVVICTEWDMFKELDYERIHKKMLKPAFIFDGRRVLDGLHNELQTIGFQIETIGKKVSSKRIPYAPSGEIPKFSLQDPPNKKPKV
- stoichiometry N [6]: 6 and 2

Source: paper PMC4955856 (Biochemistry, 2016)
